Source: the supplement of paper PMC10567573

B1: PBXIP1 (parent)
chain: FGEDGIFRHDRLRFRDFVDALEDS
B2: ATL3 (parent)
chain: YGLQGGMAFLDKRLQVKEHQHEEI

Variants of: B1
Assay: protein stability index of a GFP-peptide fusion (GPS, HEK-293T) (PSI 1-6); higher = more stable
Conditions: c terminus: a fixed tail appended
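Note: lentivirally expressed fusions sorted by FACS into six bins by GFP to DsRed ratio, PSI derived from sequencing read proportions per bin multiplied by bin number.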

Protein stability index, by site and new letter:
R15: N 3.38 | Q 3.06 | F 2.68 | D 2.87 | W 1.97 | M 2.54 | V 2.02 | K 2.9 | I 2.23 | S 2.54 | H 2.48 | A 2.38 | Y 2.22
A20: Q 2.95 | D 3.23 | V 2.49 | F 2.38 | P 3.06 | G 3.41 | W 2.46 | N 2.78 | T 2.21 | S 3.18 | R 3.01 | E 3.25 | M 2.13 | H 2.42 | L 2.09 | K 3.6
F17: P 3.44 | I 3.19 | L 2.77 | Y 2.97 | G 3.57 | W 2.79 | Q 3.58 | A 3.46 | N 3.55 | C 3.12 | D 3.68 | K 3.09
V18: Y 2.4 | E 3.5 | D 3.1 | I 2.17 | H 2.53 | C 3.3 | G 3.16 | L 3.32 | F 2.45 | Q 3.49 | N 3.14 | R 3.05 | K 3.13 | P 2.94
L12: Q 3.17 | P 2.43 | G 3.31 | R 2.58 | F 2.56 | Y 2.71 | K 2.46 | M 2.51 | N 3.14 | T 2.44 | A 2.88 | H 2.73 | V 2.65 | E 3.51
S24: M 2.2 | Y 1.78 | A 2.21 | F 1.8 | P 2.51 | R 2.76 | N 3.15 | C 3.48
R11: Q 3.29 | W 2.49 | L 2.33 | A 2.57 | V 2.46 | D 3.95 | K 2.57 | H 2.83 | T 3.02 | I 2.43
R13: E 4.02 | Y 2.32 | F 2.25 | S 2.92 | L 2.71 | N 3.56 | D 3.29 | A 3.13 | W 1.99 | H 2.57 | G 2.9 | I 2.26 | Q 3.74 | T 3.26
E22: Q 2.24 | H 2.37 | F 1.65 | Y 2.11 | V 2.2 | R 2.38 | T 2.08 | L 2.97 | S 2.71 | I 1.76 | W 1.97
R8: E 4.23 | S 2.85 | G 2.93 | Q 2.97 | V 2.93 | C 2.51 | K 2.23 | F 1.95 | T 2.48 | I 3.09 | D 3.74
F7: D 4.33 | S 2.97 | R 2.84 | M 4.07 | Y 2.98 | E 4.84 | K 3.38 | T 2.71 | G 3.7 | I 3.51 | Q 3.36 | W 1.95
G5: F 1.66 | A 3.02 | W 1.4 | S 1.95 | R 3.02 | N 2.34 | E 3.68 | K 2.12 | P 3.37 | Y 2.59 | V 3.19 | D 3.5
D16: G 1.97 | E 3.17 | T 2.08 | P 2.27 | N 1.89 | F 2.12 | Y 1.88 | M 1.78 | H 2.09 | S 2.23 | C 3.01
D10: S 2.06 | T 2.07 | Y 1.79 | V 1.52 | P 1.85 | Q 1.86 | N 2.83 | F 2.16 | K 2.04 | A 1.96 | L 2.16
F14: S 3.81 | M 3.23 | D 3.84 | R 3.37 | Q 3.46 | V 3.05 | N 3.71 | T 3.62 | Y 2.57 | P 3.01 | H 2.87 | G 3.67 | I 2.86
D4: A 1.62 | E 3.08 | Y 1.73 | N 1.98 | I 1.73 | M 1.79 | R 2.74 | K 1.82 | F 1.74 | C 2.52 | Q 1.83 | S 1.77 | L 1.99
D19: Q 2.49 | P 2.53 | K 2.9 | F 2.22 | N 2.65 | L 1.61 | C 2.47 | G 2.37 | M 2.56 | Y 2.35 | H 2.9 | V 1.91 | R 2.48 | T 2.61
I6: H 4 | T 2.95 | L 2.3 | W 1.96 | M 1.97 | P 3.18 | Q 3.86 | R 3.72 | G 3.65 | Y 2.24 | D 4.38 | F 1.33 | A 2.23 | S 2.74 | K 2.7
F1: M 3.24 | G 3.59 | H 3.76 | C 2.39 | W 3.1 | I 3.6 | E 4.29 | Y 2.72 | V 3.77 | L 3.14 | P 4.16 | K 2.64 | R 3.78
G2: S 2.48 | N 3.09 | H 2.09 | K 2.81 | V 2.26 | W 2.95 | I 1.97 | C 2.83 | Y 3.09 | Q 2.66 | T 2.35
E3: G 2.11 | W 2.18 | C 2.17 | V 2.05 | A 2.75 | Y 3.04 | I 2.91 | P 2.28 | S 2.02 | N 1.99 | F 2.18 | D 3.01 | M 2.45 | R 3.02
D23: N 2.94 | S 2.22 | C 2.21 | P 2.35 | K 2.23 | R 1.98 | V 2.29 | T 2.55 | I 1.93 | L 2.42 | M 2.32 | F 1.92
H9: T 2.4 | L 2.4 | S 2.79 | V 2.82 | K 2.08 | P 2.88 | C 2.47 | G 3.19 | D 3.76 | W 2.04 | E 3.5 | Y 2.46 | A 2.84
L21: P 3.65 | G 2.97 | N 3.73 | D 3.68 | K 3.3 | A 3.32 | Q 3.57 | C 3.48 | I 3.07 | V 2.94 | R 3.01 | Y 3.18 | F 2.73 | M 3.12 | H 3

Variants of: B2
Assay: as above
Conditions: c terminus: a fixed tail appended

Protein stability index of substitutions, site by site:
G2: H 2.3 | I 1.66 | N 2.26 | A 2.28 | K 3.22 | L 1.93 | P 2.63 | C 1.82 | D 3.52 | F 2.31 | Q 2.11 | M 2.39 | E 3.28
Y1: H 3.51 | L 3.38 | C 2.19 | A 4.57 | Q 4.79 | R 4.07 | M 4.29 | E 4.35 | W 2.45 | T 4.08 | V 3.92 | D 5.03 | K 4.26 | F 2.51 | I 4.07 | S 4.46 | N 4.53 | P 4.22 | G 4.73
